Molecular target: T1, Aβ1-40 fibers (human)
T1 construct: Coated on Maxisorp plates for 3 days at 37 C to produce fibrillar Abeta; also called fibrillar Aβ; fibrillar Abeta
Assay: ELISA on plate-coated fibrillar Aβ(1-40), detection with anti-human-IgG-HRP
Procedure: Binding of fusion polypeptide to fibrillar Aβ was measured by an ELISA assay. Briefly, […] was coated at 7 μg/mL in PBS onto Maxisorp plates for 3 days at 37° C. to produce fibrillar Abeta, then dried for 3 h at RT. The plate was blocked with 1% Crotein C and 0.1% RSA in PBS (blocking buffer) for 1 h at RT, then washed once with wash buffer. Fusion polypeptides or controls were added at concentrations up to 100 nM in blocking buffer and incubated at 4° C. overnight. After 4 wash steps, constructs were detected by addition of anti-human-IgG-HRP (Jackson Immunoresearch) at 1:10,000 dilution in blocking buffer […], followed by 6 washes and incubation in TMB (Sigma). Absorbance was read out at 450 nm after stopping color development with 1 N HCl (see FIG. 1).

binding result: binds
B1: Mab 31 = Gantenerumab (INN) (antibody, human IgG1, V domains shown)
VH: QVELVESGGGLVQPGGSLRLSCAASGFTFSSYAMSWVRQAPGKGLEWVSAINASGTRTYYADSVKGRFTISRDNSKNTLYLQMNSLRAEDTAVYYCARGKGNTHKPYGYVRYFDVWGQGTLVTVSS
VL: DIVLTQSPATLSLSPGERATLSCRASQSVSSSYLAWYQQKPGQAPRLLIYGASSRATGVPARFSGSGSGTDFTLTISSLEPEDFATYYCLQIYNMPITFGQGTKVEIKR
notes: Human IgG1 with kappa light chain; Id; No. 13; also called mAb31(HEK); naked anti-Aβ monoclonal antibody

Reference: US20160168253A1 (Hoffmann-La Roche, published 2016)
